Source: PMC10998612 (Proceedings of the National Academy of Sciences of the …, 2024)

Target: T1, eIF2γ (γ subunit of eIF2, as in the eIF2αγ dimer) (human, UniProt P41091 1-472)
T1 construct: eIF2 gamma subunit (eIF2γ); The γ chain of m6, written alone for the pairs that touch in the crystal structure; also called human eIF2γ; source: E. coli, co-expressed with eIF2α and CDC123 from a multicistronic plasmid, purified as eIF2αγ
Assay: crystal structure; 7.5 mg/mL eIF2αγ combined with PPP1R15A_R3^420-452 at a molar ratio of 1:8 with 0.5 mM GMPPNP and 5 mM MgCl2; sitting drop, 20 °C; 11 to 12% PEG 6000, 0.1 M Tris-HCl pH 8.5; 3.35 Å
Settings: both partners purified

T1 sequence (P41091 whole entry): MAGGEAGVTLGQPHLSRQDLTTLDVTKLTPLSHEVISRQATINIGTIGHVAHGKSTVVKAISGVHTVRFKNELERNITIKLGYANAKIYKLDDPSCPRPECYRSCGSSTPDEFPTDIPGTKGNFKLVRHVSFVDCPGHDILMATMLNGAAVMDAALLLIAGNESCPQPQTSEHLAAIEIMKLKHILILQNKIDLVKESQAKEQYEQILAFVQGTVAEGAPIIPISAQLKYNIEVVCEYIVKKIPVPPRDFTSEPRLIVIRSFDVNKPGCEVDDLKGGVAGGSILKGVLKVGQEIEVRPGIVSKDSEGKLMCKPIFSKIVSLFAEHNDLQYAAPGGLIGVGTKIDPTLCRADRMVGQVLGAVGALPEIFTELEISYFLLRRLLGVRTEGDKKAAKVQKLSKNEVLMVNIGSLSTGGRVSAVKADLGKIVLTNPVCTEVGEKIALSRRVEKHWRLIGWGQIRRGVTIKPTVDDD

B1: PPP1R15A^420-452 (R3) peptide (peptide)
peptide: not shown
notes: residue numbers based on UniProt O75807; Only residues 426-434 were built in the structure
  binding result: binds
